B1: CA1.CD2-52I-Bom (designed binder)
chain: RDSGTVWGALGHGIELNIPNFQMTDDIDEVRWERGSTLVAEFKRKMKPFLKSGGSGGGNQWAVGHLMGGSGGGAFEIDANGDLDIKNLTRDDSGTYNVTVYSTNGTRILNKALDLRILE
notes: also called CA1.Bom
B2: CA1.CD2 (designed binder)
chain: RDSGTVWGALGHGIELNIPNFQMTDDIDEVRWERGSTLVAEFKRKMKPFLKSGAFEIDANGDLDIKNLTRDDSGTYNVTVYSTNGTRILNKALDLRILE
notes: domain: domain 1; 12 kDa, expressed in E. coli; in most assays loaded with Gd3+; also called Gd-CA1.CD2

Legend:
[1] = target: T1, GRPR (GRP receptor) (UniProt P30550 1-384, limits assumed); experiment: confocal immunofluorescence with a CD2 antibody and Alexa Fluor 488 on GRPR-high PC-3 and DU145 cells at 37 °C; GRPR-low H441 cells as control
T1 construct: whole, on cells; also called gastrin release peptide receptor
Experimental: (§1) In the second day, fresh medium was changed. Contrast agents were incubated with cells at different time point at 37° C. […] After cells were rinsed in PBS for three times, 0.2% Triton X-100 was added to permeablize cells for 10 minutes. […] After three time washes, CD2 antibody was used as primary antibody.

[2] = target: T2, HER2 (human, UniProt P04626 23-1255); experiment: immunofluorescence staining of AU565 cells (HER2 high) with PAbPGCA1
T2 construct: whole, on cells; also called cell surface HER2
Text: We used two cancer cell lines for the binding analyses. AU565 is derived from breast carcinoma. EMT6 is a mouse mammary tumor cell line. AU565 cells express very high levels of HER2. The EMT is regarded as a HER2 negative cell line.

[3] = target: T1, GRPR (GRP receptor); experiment: confocal immunofluorescence with a CD2 antibody and Alexa Fluor 488 on GRPR-high PC-3 and DU145 cells; CA1-CD2 without the bombesin sequence as control
Experimental: as §1

T1 sequence (P30550 whole entry): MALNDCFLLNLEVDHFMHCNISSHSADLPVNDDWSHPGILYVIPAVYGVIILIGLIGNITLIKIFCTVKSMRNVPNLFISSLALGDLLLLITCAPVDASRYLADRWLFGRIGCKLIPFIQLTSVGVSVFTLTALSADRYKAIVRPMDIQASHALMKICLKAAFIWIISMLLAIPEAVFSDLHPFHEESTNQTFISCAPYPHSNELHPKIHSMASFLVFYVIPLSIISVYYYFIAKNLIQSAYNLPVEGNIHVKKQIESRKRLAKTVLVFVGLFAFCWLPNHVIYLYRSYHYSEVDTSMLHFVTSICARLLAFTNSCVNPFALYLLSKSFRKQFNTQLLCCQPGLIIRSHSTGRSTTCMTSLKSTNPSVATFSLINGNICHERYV

Binder | binding result [1] | binding result [2] | binding result [3]
B1 | binds | – | –
B2 | – | no binding | no binding

Reference: US20180250426A1 (GEORGIA STATE UNIVERSITY RESEARCH FOUNDATION, published 2018)
